Reference: US7148006

Target: wild type human PKR, full length (aa 1-551) (human) (UniProt P19525)
Assay: cell-based or functional assay

Chain of wild type human PKR, full length (aa 1-551) (human) (P19525 whole entry, the tested form may be a part): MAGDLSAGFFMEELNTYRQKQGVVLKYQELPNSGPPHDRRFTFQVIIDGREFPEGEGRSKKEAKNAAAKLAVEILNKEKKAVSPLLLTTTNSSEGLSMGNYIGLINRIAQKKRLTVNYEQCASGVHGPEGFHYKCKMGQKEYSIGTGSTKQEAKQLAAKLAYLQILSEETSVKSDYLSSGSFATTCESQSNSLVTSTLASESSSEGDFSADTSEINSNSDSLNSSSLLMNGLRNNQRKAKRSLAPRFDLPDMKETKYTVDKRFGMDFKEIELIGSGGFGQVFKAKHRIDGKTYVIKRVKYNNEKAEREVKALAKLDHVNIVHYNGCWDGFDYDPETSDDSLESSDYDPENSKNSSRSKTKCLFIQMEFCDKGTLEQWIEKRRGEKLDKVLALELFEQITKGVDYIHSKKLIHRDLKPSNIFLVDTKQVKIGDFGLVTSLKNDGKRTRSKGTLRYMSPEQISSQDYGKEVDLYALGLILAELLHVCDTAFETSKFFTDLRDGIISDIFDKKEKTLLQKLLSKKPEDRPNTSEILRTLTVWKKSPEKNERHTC

Substance: NS5A 1b-2 (untagged, expressed from pYES-NS5A 1b-2)
- fold decrease in plating efficiency of yeast RY1-1 on galactose medium: 10 to 100 fold
